Assay results as given in article PMC10397247.
Values belong to the binder of their own block, whether it stands above or below them.

Columns and labels:
APC2556-AA = target: T1, APC2556-AA; experiment: two-hybrid library CCmax;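 also: natural log of median RNA to DNA barcode read ratio; higher means stronger binding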
T1 chain: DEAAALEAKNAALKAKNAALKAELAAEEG

APC2724-AA = target: T2, APC2724-AA; experiment: two-hybrid library CCmax; conditions: mean of both orientations;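 also: natural log of median RNA to DNA barcode read ratio; higher means stronger binding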
T2 chain: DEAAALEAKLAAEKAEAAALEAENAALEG

APC2811-AA = target: T3, APC2811-AA; experiment: two-hybrid library CCmax; conditions: mean of both orientations;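 also: natural log of median RNA to DNA barcode read ratio; higher means stronger binding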
T3 chain: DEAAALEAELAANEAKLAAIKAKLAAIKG

APC2981-AA = target: T4, APC2981-AA; experiment: two-hybrid library CCmax; conditions: mean of both orientations;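 also: natural log of median RNA to DNA barcode read ratio; higher means stronger binding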
T4 chain: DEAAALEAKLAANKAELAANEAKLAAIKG

APC3265-AA = target: T5, APC3265-AA; experiment: two-hybrid library CCmax; conditions: mean of both orientations;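 also: natural log of median RNA to DNA barcode read ratio; higher means stronger binding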
T5 chain: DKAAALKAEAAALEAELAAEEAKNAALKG

APC3323-AA = target: T6, APC3323-AA; experiment: two-hybrid library CCmax; conditions: mean of both orientations;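 also: natural log of median RNA to DNA barcode read ratio; higher means stronger binding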
T6 chain: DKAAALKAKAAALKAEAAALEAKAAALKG

APC3354-AA = target: T7, APC3354-AA; experiment: two-hybrid library CCmax; conditions: mean of both orientations
T7 chain: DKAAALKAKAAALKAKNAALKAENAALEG

APC3881-AA = target: T8, APC3881-AA; experiment: two-hybrid library CCmax; conditions: mean of both orientations
T8 chain: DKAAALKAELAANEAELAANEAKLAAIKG

APC4100-AA = target: T9, APC4100-AA; experiment: two-hybrid library CCmax; conditions: mean of both orientations
T9 chain: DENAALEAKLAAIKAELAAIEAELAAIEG

APC4336-AA = target: T10, APC4336-AA; experiment: two-hybrid library CCmax; conditions: mean of both orientations
T10 chain: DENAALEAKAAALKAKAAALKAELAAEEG

APC5009-AA = target: T11, APC5009-AA; experiment: two-hybrid library CCmax; conditions: mean of both orientations
T11 chain: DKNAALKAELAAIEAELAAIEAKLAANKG

APC542-AA = target: T12, APC542-AA; experiment: two-hybrid library CCmax; conditions: mean of both orientations
T12 chain: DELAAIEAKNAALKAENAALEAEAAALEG

APC5531-AA = target: T13, APC5531-AA; experiment: two-hybrid library CCmax; conditions: mean of both orientations
T13 chain: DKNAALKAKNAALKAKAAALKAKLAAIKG

APC6088-AA = target: T14, APC6088-AA; experiment: two-hybrid library CCmax; conditions: mean of both orientations
T14 chain: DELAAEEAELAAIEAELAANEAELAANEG

APC7524-AA = target: T15, APC7524-AA; experiment: two-hybrid library CCmax; conditions: mean of both orientations
T15 chain: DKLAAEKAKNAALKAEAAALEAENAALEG

APC8401-AA = target: T16, APC8401-AA; experiment: two-hybrid library CCmax; conditions: mean of both orientations
T16 chain: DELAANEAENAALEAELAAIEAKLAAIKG

APC8516-AA = target: T17, APC8516-AA; experiment: two-hybrid library CCmax; conditions: mean of both orientations
T17 chain: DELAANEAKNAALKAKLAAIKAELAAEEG

APC9141-AA = target: T18, APC9141-AA; experiment: two-hybrid library CCmax; conditions: mean of both orientations
T18 chain: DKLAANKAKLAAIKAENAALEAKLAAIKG

APC9182-AA = target: T19, APC9182-AA; experiment: two-hybrid library CCmax; conditions: mean of both orientations
T19 chain: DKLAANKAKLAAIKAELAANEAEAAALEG

APC9291-AA = target: T20, APC9291-AA; experiment: two-hybrid library CCmax; conditions: mean of both orientations
T20 chain: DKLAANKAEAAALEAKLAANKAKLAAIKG

APC9806-AA = target: T21, APC9806-AA; experiment: two-hybrid library CCmax; conditions: mean of both orientations
T21 chain: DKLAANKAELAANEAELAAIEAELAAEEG

4H470-bN = target: T22, 4H470-bN; experiment: two-hybrid library CCNG1
T22 chain: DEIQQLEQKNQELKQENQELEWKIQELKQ

4H2697-bA = target: T23, 4H2697-bA; experiment: two-hybrid library CCNG1
T23 chain: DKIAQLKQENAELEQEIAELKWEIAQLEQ

4H3041-bH = target: T24, 4H3041-bH; experiment: two-hybrid library CCNG1
T24 chain: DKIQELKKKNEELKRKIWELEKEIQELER

4H3189-bA = target: T25, 4H3189-bA; experiment: two-hybrid library CCNG1
T25 chain: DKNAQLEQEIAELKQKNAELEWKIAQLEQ

4H331-bA = target: T26, 4H331-bA; experiment: two-hybrid library CCNG1
T26 chain: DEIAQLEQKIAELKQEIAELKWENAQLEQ

4H3606-bA = target: T27, 4H3606-bA; experiment: two-hybrid library CCNG1
T27 chain: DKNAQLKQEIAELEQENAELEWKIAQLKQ

4H370-bA = target: T28, 4H370-bA; experiment: two-hybrid library CCNG1
T28 chain: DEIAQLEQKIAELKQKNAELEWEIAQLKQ

4H3782-bA = target: T29, 4H3782-bA; experiment: two-hybrid library CCNG1
T29 chain: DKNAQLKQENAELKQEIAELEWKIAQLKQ

4H3843-bA = target: T30, 4H3843-bA; experiment: two-hybrid library CCNG1
T30 chain: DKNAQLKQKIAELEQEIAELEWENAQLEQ

4H4001-bA = target: T31, 4H4001-bA; experiment: two-hybrid library CCNG1
T31 chain: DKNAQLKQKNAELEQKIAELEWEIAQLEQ

4H462-bA = target: T32, 4H462-bA; experiment: two-hybrid library CCNG1
T32 chain: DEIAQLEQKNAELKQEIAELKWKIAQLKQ

4H568-bA = target: T33, 4H568-bA; experiment: two-hybrid library CCNG1
T33 chain: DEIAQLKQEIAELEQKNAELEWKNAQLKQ

4H607-bA = target: T34, 4H607-bA; experiment: two-hybrid library CCNG1
T34 chain: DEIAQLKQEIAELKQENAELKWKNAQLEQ

4H687-bA = target: T35, 4H687-bA; experiment: two-hybrid library CCNG1
T35 chain: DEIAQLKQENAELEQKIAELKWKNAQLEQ

4H72-bA = target: T36, 4H72-bA; experiment: two-hybrid library CCNG1
T36 chain: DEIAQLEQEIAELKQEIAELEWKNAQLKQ

4H797-bA = target: T37, 4H797-bA; experiment: two-hybrid library CCNG1
T37 chain: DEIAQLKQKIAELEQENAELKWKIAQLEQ

4H883-bA = target: T38, 4H883-bA; experiment: two-hybrid library CCNG1
T38 chain: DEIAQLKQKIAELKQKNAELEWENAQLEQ

4H918-bA = target: T39, 4H918-bA; experiment: two-hybrid library CCNG1
T39 chain: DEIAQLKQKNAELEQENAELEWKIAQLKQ

4H953-bA = target: T40, 4H953-bA; experiment: two-hybrid library CCNG1
T40 chain: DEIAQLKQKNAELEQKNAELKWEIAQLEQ

4H967-bA = target: T41, 4H967-bA; experiment: two-hybrid library CCNG1
T41 chain: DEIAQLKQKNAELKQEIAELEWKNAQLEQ

interaction score (APC2556-AA): -1.78 | interaction score (APC2724-AA): -1.65 | interaction score (APC2811-AA): -1.73 | interaction score (APC2981-AA): -1.98 | interaction score (APC3265-AA): -1.69 | interaction score (APC3323-AA): -1.82 | interaction score (APC3354-AA): -1.9 | interaction score (APC3881-AA): -1.61 | interaction score (APC4100-AA): -2.2 | interaction score (APC4336-AA): -1.77 | interaction score (APC5009-AA): -1.65 | interaction score (APC542-AA): -1.72 | interaction score (APC5531-AA): -1.7 | interaction score (APC6088-AA): -1.75 | interaction score (APC7524-AA): -2.09 | interaction score (APC8401-AA): -1.48 | interaction score (APC8516-AA): -2.01 | interaction score (APC9141-AA): -1.94 | interaction score (APC9182-AA): -1.74 | interaction score (APC9291-AA): -1.79 | interaction score (APC9806-AA): -2.15
Binder: DEAAALEAKNAALKAKNAALKAELAAEEG [APC2556-AA]

interaction score (4H470-bN): -0.484
Binder: DEIQQLEQKNQELKQENQELEWKIQELKQ [4H470-bN]

interaction score (4H2697-bA): -0.377 | interaction score (4H3041-bH): 1.02 | interaction score (4H3189-bA): -1.34 | interaction score (4H331-bA): -1.52 | interaction score (4H3606-bA): -1.7 | interaction score (4H370-bA): -1.13 | interaction score (4H3782-bA): 0.993 | interaction score (4H3843-bA): -0.367 | interaction score (4H4001-bA): -0.951 | interaction score (4H462-bA): 2.04 | interaction score (4H568-bA): -1.82 | interaction score (4H607-bA): -1.17 | interaction score (4H687-bA): -1.08 | interaction score (4H72-bA): -1.03 | interaction score (4H797-bA): -0.734 | interaction score (4H883-bA): -1.53 | interaction score (4H918-bA): -0.926 | interaction score (4H953-bA): -1.44 | interaction score (4H967-bA): -0.359
Binder: DKIAQLKQENAELEQEIAELKWEIAQLEQ [4H2697-bA]
